Positions count from the first letter of the chain named.
T1: Human full length B7-H3 (human, UniProt Q5ZPR3 29-534)
T1 construct: On 3T12 fibroblasts expressing full length human B7-H3 or on NCI-H1650 cells; signal peptide residues 1-28 stated; also called huB7-H3; CD276
T1 sequence: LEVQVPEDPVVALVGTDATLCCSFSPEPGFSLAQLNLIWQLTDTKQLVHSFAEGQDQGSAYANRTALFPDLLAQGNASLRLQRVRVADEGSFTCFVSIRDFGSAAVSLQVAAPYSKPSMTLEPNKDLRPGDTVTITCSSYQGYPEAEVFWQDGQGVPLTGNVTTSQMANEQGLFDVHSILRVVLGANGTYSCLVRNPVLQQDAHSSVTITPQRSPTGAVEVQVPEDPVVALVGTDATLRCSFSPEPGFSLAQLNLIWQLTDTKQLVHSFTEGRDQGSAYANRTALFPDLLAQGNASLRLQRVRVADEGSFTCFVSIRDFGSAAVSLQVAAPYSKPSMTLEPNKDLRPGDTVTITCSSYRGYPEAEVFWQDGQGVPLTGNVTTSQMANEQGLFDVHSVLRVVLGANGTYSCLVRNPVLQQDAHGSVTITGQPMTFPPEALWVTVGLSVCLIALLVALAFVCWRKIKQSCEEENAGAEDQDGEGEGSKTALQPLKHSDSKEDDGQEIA

T2: Mouse B7-H3 on cells (mouse, UniProt Q8VE98 29-316)
T2 construct: whole, on cells
T2 sequence (looked up): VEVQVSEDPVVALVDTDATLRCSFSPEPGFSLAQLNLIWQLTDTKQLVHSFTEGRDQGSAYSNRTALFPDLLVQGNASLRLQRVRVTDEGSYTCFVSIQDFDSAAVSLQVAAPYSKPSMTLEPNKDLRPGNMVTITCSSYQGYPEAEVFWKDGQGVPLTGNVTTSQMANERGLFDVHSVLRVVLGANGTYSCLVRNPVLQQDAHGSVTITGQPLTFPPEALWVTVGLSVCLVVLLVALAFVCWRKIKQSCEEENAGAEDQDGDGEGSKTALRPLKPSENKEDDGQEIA

T3: Human B7-H3-ECD (His tag) (human, UniProt Q5ZPR3 29-461)
T3 construct: SPR analyte; also called huB7-H3; soluble ECD of human B7-H3
T3 sequence: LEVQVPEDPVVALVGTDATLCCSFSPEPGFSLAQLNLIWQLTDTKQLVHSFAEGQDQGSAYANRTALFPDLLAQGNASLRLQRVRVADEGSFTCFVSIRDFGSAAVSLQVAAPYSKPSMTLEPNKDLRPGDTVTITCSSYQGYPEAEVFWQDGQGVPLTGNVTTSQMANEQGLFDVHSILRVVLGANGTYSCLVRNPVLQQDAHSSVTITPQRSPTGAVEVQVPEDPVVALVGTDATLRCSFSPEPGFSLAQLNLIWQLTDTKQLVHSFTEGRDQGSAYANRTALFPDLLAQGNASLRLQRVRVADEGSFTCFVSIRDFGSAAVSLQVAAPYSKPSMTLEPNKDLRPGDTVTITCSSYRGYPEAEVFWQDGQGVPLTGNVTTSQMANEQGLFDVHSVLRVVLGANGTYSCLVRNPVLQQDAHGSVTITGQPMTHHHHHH

T4: Cyno B7-H3-ECD (his tag) (cynomolgus)
T4 construct: SPR analyte; also called soluble ECD of cyno B7-H3
T4 chain: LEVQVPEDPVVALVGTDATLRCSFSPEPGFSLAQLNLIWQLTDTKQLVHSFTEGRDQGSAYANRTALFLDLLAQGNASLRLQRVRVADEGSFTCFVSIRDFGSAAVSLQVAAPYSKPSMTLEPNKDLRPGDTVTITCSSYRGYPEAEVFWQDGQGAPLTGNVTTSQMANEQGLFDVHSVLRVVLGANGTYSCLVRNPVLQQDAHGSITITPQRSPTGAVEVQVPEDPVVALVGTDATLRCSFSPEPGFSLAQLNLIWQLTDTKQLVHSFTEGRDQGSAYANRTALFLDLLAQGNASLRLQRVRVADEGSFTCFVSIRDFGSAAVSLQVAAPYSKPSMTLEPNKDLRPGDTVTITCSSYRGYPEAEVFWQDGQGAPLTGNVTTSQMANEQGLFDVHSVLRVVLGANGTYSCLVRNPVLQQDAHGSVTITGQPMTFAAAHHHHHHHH

B1: Ab14 (antibody, mouse IgG1, V domains shown)
VH: EVKLVESGGGLVKPGGSLKLSCAASGFTFSSYGMSWVRQTPEKRLEWVATISGGGTNTYYPDSVEGRFTISRDNAKNFLYLQMSSLRSEDTALYYCARHYGSQTMDYWGQGTSVTVSS
VL: DIQMTQSPASLSASVGETVTITCRTSGNIHNYLTWYQQKQGKSPQLLVYNAKTLADGVPSRFSGSGSGTQFSLKINSLQPEDFGSYYCQHFWSIMWTFGGGTKLEIK
notes: mouse IgG1/k
B2: Ab5 (antibody, mouse IgG1, V domains shown)
VH: QVQLQQPGDELVKPGASVKLSCKTSGYTFTTDWMHWVKQRPGQGLEWIGMIHPNSGTTNYNEKFKSKAALTVDKSSSTACMQLSSLTSEDSAVYYCARSYWKWYFDVWGTGTTVTVSS
VL: QIVLTQSPAIMSASLGEEITLTCSASSSVSYMHWYQQKSGTSPKLLIYSTSNLASGVPSRFSGSGSGTFYSLTISSVEAEDSADYYCHQWTSYMYTFGGGTKLEIK
notes: mouse IgG1/k
B3: Ab13 (antibody, mouse IgG1, V domains shown)
VH: DVQLQESGPDLVKPSQSLSLTCTVTGYSITSGYSWHWIRQFPGNKLEWMGYIHSSGSTNYNPSLKSRISINRDTSKNQFFLQLNSVTTEDTATYYCAGYDDYFEYWGQGTTLTVSS
VL: DIVMTQSQKFMSTSVGDRVSVTCKASQNVGFNVAWYQQKPGQSPKALIYSASYRYSGVPDRFTGSGSGTDFTLTISNVQSEDLAEYFCQQYNSYPFTFGSGTKLEIK
notes: mouse IgG1/k
B4: Ab16 (antibody, mouse IgG1, V domains shown)
VH: EVKLLESGGGLVQPGGSLKLSCAASGFDFSRYWMSWVRQAPGKGLEWIGEINPDSSTINYTPSLKDKFIISRDNAKNTLYLQMSKVRSEDTALYYCARPGFGNYIYAMDYWGQGTSVTVSS
VL: DIQMTQTTSSLSASLGDRVTINCRASQDISNFLNWYQQKPDGTVKLLIYYTSRLYLGVPSRFSGSGSGTDYSLTISNLEQEDIATYFCQQGNTLPPTFGGGTKLEIK
notes: mouse IgG1/k
B5: Ab6 (antibody, mouse IgG1, V domains shown)
VH: QVQLQQSGAELMKPGASVKISCKATGYTFSRYWIEWVKQRPGHGLEWIGEILPGSGSTNYNEKFKGKATFTADTSSNTAYMQVSSLTSEDSAVHYCARRGYGYVPYALDYWGQGTSVTVSS
VL: B4 VL with D1E, N22S, F32S, K45N, L56S, P96Y
notes: mouse IgG1/k
B6: Ab3 (antibody, mouse IgG1, V domains shown)
VH: QVQLQQPGAELVKPGASVKLSCKASGYTFSSYWMHWVKQRPGQGLEWIGLIHPDSGSTNYNEMFKNKATLTVDRSSSTAYVQLSSLTSEDSAVYFCAGGGRLYFDYWGQGTTLTVSS
VL: DVVMTQTPLSLPVSLGDQASISCRSSQSLVHSNGDTYLRWYLQKPGQSPKLLIYKVSNRFSGVPDRFSGSGSGTDFTLKITRVEAEDLGVYFCSQSTHVPYTFGGGTKLEIK
notes: mouse IgG1/k
B7: Ab2 (antibody, mouse IgG1, V domains shown)
VH: QVQLQQPGAELVKPGASVKLSCKASGYTFTSYWMHWVKQRPGQGLEWIGMIHPDSGTTNYNEKFRSKATLTVDKSSSTAYMQLSSLTSEDSAVYYCAVYYGSTYWYFDVWGTGTTVTVSS
VL: B6 VL with S20Y, S32I, D35N, R39H, L42R, T81S, V99F, Y101F, G105S
notes: mouse IgG1/k
B8: Ab17 (antibody, mouse IgG2b, V domains shown)
VH: EVKLVESGGGLVQPGGSLKLSCAASGFTFSSYIMSWVRQTPEKRLEWVASIVSSNITYYPDSMKGRFTISRDNARNILYLQMSSLKSEDTAMYYCARSGTRAWFAYWGQGTLVTVSA
VL: DIVLTQSPASLAVSLGQRATISCRASKSVSTSAYSYMHWYQQKPGQPPKLLIYLASNLESGVPARFSGSGSGTDFTLNIHPVEEEDAATYYCQHSRELPYTFGGGTKLEIK
notes: mouse IgG2b/k
B9: Ab11 (antibody, mouse IgG1, V domains shown)
VH: EVKLVESGGGLVQPGGSLRLSCATSGFTFTNYYMSWVRQPPGKALEWLGFIRNKANDYTTEYSASVKGRFTISRDNSQSILYLQMNTLRAEDSATYYCARESPGNPFAYWGQGTLVTVSA
VL: DIVMTQSPSSLTVTAGEKVTMTCKSSQSLLNSGTQKNFLTWYQQKPGQPPKLLIYWASTRESGVPDRFTGSGSGTDFTLTISSVQAEDLAVYFCQNDYIYPLTFGAGTKLELK
notes: mouse IgG1/k

Target: T1, Human full length B7-H3
Assay: FACS, 3T12 transfectants
Experimental: (§1) A selection of hits were subcloned using the MoFlo (Beckman, Indianapolis, Ind., US) by depositing a single cell per well into 96 well cell culture plates to ensure clonality of the cell line. Resulting colonies were screened for specificity by FACS using mouse 3T12 fibroblast cell lines expressing the human B7-H3, cynomolgous B7-H3 or mouse B7-H3. Isotype of each monoclonal antibody was determined using the Mouse Monoclonal Isostyping Kit (Roche, No. 11-493-027-001, Indianapolis, Ind., USA).

EC50	Binder
3.03 nM	B1
2.71 nM	B2
1.94 nM	B3
3.94 nM	B4
1.59 nM	B5
1.66 nM	B6
1.7 nM	B7
2.75 nM	B8
23.4 nM	B9

Target: T5, Cynomolgous B7-H3 on cells (cynomolgus)
T5 construct: whole, on cells; also called cyB7-H3; cyno B7-H3
Assay: FACS, 3T12 transfectants
Experimental: as §1

EC50	Binder
2.97 nM	B1
1.91 nM	B2
4.12 nM	B3
4.28 nM	B4
1.53 nM	B5
1.42 nM	B6
1.5 nM	B7
2.6 nM	B8
2.03 nM	B9

Target: T2, Mouse B7-H3 on cells
Assay: FACS, 3T12 transfectants
Experimental: as §1

EC50	binding result	Binder
102 nM		B1
6.01 nM		B2
25.8 nM		B3
319 nM		B4
	no binding	B5
0.94 nM		B6
1 nM		B7
2.39 nM		B8
569 nM		B9

Target: T3, Human B7-H3-ECD (His tag)
Assay: SPR, mAb captured, ECD analyte

Kd	koff	kon	Binder
13 nM	0.0014 s⁻¹	110000 M⁻¹ s⁻¹	B1
9.2 nM	0.012 s⁻¹	1.3e+06 M⁻¹ s⁻¹	B2
17 nM	0.0058 s⁻¹	330000 M⁻¹ s⁻¹	B3
24 nM	0.0032 s⁻¹	140000 M⁻¹ s⁻¹	B4
840 nM	0.01 s⁻¹	12000 M⁻¹ s⁻¹	B5
19 nM	0.01 s⁻¹	520000 M⁻¹ s⁻¹	B6
24 nM	0.0029 s⁻¹	120000 M⁻¹ s⁻¹	B7
0.034 nM	1.9e-05 s⁻¹	540000 M⁻¹ s⁻¹	B8
45 nM	0.00089 s⁻¹	20000 M⁻¹ s⁻¹	B9

Target: T4, Cyno B7-H3-ECD (his tag)
Assay: SPR, mAb captured, ECD analyte

Kd	koff	kon	Binder
4.3 nM	0.003 s⁻¹	690000 M⁻¹ s⁻¹	B1
200 nM	0.28 s⁻¹	1.4e+06 M⁻¹ s⁻¹	B2
8.4 nM	0.0037 s⁻¹	440000 M⁻¹ s⁻¹	B3
7.5 nM	0.0056 s⁻¹	750000 M⁻¹ s⁻¹	B4
410 nM	0.012 s⁻¹	28000 M⁻¹ s⁻¹	B5
26 nM	0.01 s⁻¹	380000 M⁻¹ s⁻¹	B6
50 nM	0.011 s⁻¹	230000 M⁻¹ s⁻¹	B7
≤ 0.019 nM	≤ 1e-05 s⁻¹	510000 M⁻¹ s⁻¹	B8
2.6 nM	7.2e-05 s⁻¹	27000 M⁻¹ s⁻¹	B9

From patent publication US20170355769A1 (AbbVie / Abbott, published 2017)
